Measured values published in PMC7876468 (Frontiers in Medicine, 2021).
Residue numbers refer to the chain shown, from its start.

B1: CC3-hop (VHH)
VHH: EVQLQASGGGSVQAGGSLRLSCVTSQNLFEYYTMGWYRQVPGSQRERVALINNGGSTVAGSVEGRFTISRDHAKNSVYLQMNYLKPEDSAVYYCRAFGPADYWGQGTQVTVSS
notes: also called CC3 with the hop tail; original CC3-hop
B2: CC3-m9hop (VHH)
VHH: B1 VHH with E1Q, Q3K, E63K, P86R
notes: Theoretical pI 9.35; also called variant 9
B3: CC3-m2hop (VHH)
VHH: B1 VHH with Q5V, A6E, G16D, K85Q
notes: Theoretical pI 6.35
B4: CC3-m3hop (VHH)
VHH: B1 VHH with Q5V, A6E, K85Q
notes: Theoretical pI 6.63
B5: CC3-m4hop (VHH)
VHH: B1 VHH with Q5V, A6E
notes: Theoretical pI 7.04
B6: CC3-m5hop (VHH)
VHH: B1 VHH with Q3K
notes: Theoretical pI 8.40
B7: CC3-m6hop (VHH)
VHH: B1 VHH with E1Q, Q3K
notes: Theoretical pI 8.75
B8: CC3-m7hop (VHH)
VHH: B1 VHH with E1Q, Q3K, E63V
notes: Theoretical pI 9.0
B9: CC3-m8hop (VHH)
VHH: B1 VHH with E1Q, Q3K, E63K
notes: Theoretical pI 9.18; also called variant 8

The binders below were run against T1, CHIKV VLPs (Chikungunya virus, VLP strain not …, UniProt Q5XXP3) (assay: MagPlex direct binding assay). Conditions: both partners purified.
T1 construct: also called CHIKV virus-like particles
T1 sequence (Q5XXP3 whole entry, looked up): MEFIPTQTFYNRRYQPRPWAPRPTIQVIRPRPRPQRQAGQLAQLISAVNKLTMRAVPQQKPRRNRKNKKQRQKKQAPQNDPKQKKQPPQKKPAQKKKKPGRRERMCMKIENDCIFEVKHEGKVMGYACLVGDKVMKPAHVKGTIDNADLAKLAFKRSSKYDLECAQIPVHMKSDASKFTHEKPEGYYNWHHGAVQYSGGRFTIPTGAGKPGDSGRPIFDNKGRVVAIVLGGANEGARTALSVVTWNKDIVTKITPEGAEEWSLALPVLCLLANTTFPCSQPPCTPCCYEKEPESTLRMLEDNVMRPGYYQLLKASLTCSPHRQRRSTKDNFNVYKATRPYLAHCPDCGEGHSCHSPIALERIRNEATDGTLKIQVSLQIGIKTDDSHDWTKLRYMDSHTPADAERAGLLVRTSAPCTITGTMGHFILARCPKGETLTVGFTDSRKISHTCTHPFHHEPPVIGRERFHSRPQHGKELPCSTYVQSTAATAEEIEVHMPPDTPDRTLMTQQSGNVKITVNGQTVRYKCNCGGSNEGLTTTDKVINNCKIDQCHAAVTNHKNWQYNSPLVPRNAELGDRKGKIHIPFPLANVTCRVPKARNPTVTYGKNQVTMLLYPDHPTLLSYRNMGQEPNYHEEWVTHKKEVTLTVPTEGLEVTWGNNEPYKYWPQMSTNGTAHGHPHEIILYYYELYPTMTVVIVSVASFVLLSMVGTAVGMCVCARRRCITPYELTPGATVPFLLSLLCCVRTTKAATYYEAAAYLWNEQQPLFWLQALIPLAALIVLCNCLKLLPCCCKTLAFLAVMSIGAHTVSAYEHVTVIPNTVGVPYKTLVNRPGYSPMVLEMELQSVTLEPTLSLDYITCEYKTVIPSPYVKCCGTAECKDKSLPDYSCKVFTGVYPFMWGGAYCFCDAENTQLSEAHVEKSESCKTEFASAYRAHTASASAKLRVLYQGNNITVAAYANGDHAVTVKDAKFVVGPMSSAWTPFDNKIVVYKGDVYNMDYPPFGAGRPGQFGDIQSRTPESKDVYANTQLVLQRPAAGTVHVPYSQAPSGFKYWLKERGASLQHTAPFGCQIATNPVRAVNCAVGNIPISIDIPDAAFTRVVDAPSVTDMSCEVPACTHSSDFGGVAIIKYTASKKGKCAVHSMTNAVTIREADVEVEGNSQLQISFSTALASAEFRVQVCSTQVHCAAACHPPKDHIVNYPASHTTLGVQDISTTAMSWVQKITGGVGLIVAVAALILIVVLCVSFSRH
B1: binds. B2: binds. B3: binds. B4: binds. B5: binds. B6: binds. B7: binds. B8: binds. B9: binds.
